Assay in all cases: intermolecular Diels-Alder kinetics
Substrate in data set [1]: C=C/C=C/NC(=O)OCc1ccc(C(=O)OC)cc1
It counts as biochemical, Streptomyces rugosporus. The following applies: co-substrate 2, PBS pH 7.4, 37 °C. An excerpt: (§1) intermolecular Diels-Alder kinetics on PyrI4

Substrate in data set [2]: C=CC(=O)N(C)C
It counts as biochemical, Streptomyces rugosporus. As to conditions: co-substrate 1a, PBS pH 7.4, 37 °C.
Source text: as §1

Substrate in data set [3]: C=C/C=C/NC(=O)OCc1ccc(C(=O)OC)cc1
The class given is biochemical, Parafrankia colletiae. The following applies: co-substrate 2, PBS pH 7.4, 37 °C. The source says: intermolecular Diels-Alder kinetics on AbnU

Broadly, the Km is the substrate concentration at which the rate is half of its maximum. Broadly, the kcat is the number of substrate molecules converted per active site and unit of time at saturation.

B1: PyrI4 (Streptomyces rugosporus) (protein)
chain: MTTPQIDERAMEAGAAALQETIVDPGPLDVTALAVAAALAAGLHSAADDPAAALDKCIVLDELTEFAEKLVVHDRPGGIGTTVEYVEVYEDASGVRLGTATGNAVVLKMEPHMWQFHQSVSELADGSFEAVGVIDCTAMLRRMTQVLRVTGRSGRYAGKSGFMTLAISDPNQRPPHYSVQVVLC
notes: full length, N-terminal poly-His tag, pET28a(+), codon-optimised synthetic gene, E. coli
For the protein B1, in data set [1], the Km is 200 ± 10 µM and the kcat was found to be 6.39e-06 ± 5.6e-07 s⁻¹. Besides, in data set [2], the Michaelis-Menten constant (Km) is 100000 ± 1250 µM and the kcat was found to be 6.39e-06 ± 5.6e-07 s⁻¹.

B2: AbnU (Parafrankia colletiae) (protein)
chain: MSVVHEGIWEPQIRNEQNVNVADPQVGQIGSYYDELYDSSRELLGITIGRYEIRYKKVGGAVLTYYSEDLFLRDGIIHAEGWADFNDVKNGVWVGYPAVGLDGVYRGLDGRREWRVIEPDQPVEARISLHG
notes: N-terminal poly-His tag, pET28a(+), codon-optimised synthetic gene, E. coli; dimer
With B2, in data set [3], the Michaelis-Menten constant (Km) worked out at 200 ± 10 µM and the kcat came out at 1.17e-05 ± 2.8e-07 s⁻¹.

The values above are taken from paper PMC9814550, “Exo-selective intermolecular Diels–Alder reaction by PyrI4 and AbnU on non-natural substrates” (Communications Chemistry, 2021).
